Test results published in PMC6472409, “Dishevelled-3 conformation dynamics analyzed by FRET-based biosensors reveals a key role of casein kinase 1” (Nature Communications, 2019).

Tests used:
[1] = tested on: Wnt/β-catenin pathway; test: Dual Luciferase TopFlash/Renilla Reporter Assay; assay type: cell-based, human; conditions: Fig 8d
Description: Cells were transfected 24 h after seeding with 0.1 μg of Super8X TopFlash construct, 0.1 μg of Renilla luciferase construct, and 0.1 μg of corresponding plasmids per well for 6 h in a 24-well plate. As for the ECFP-DVL3 FIII wt stable cell lines, transfection was followed by 4 h induction of tetracycline (1 µg/ml) and 8 h treatment of CM:DMEM (1:1 ratio). For performing this assay, Promega Dual Luciferase assay kit (Promega, #E1910) was used according to the manufacturer’s instructions. Luminescence was measured by a Hidex Bioscan Plate Chameleon Luminometer. Results are depicted as the ratio of TopFlash and Renilla signal (TopFlash fold induction), which was normalized for each experiment to certain control column (normalized TopFlash fold induction). Data were analyzed by MS Excel 2007 and GraphPad Prism 6 and results were shown as the means ± S.D. (number of experiments indicated ad hoc).

[2] = tested on: DVL3 membrane recruitment by FZD6 in HEK293 cells; test: FZD6-dependent membrane recruitment of DVL3, immunofluorescence; assay type: cell-based, human; design: key to Non-recruited (DVL3 membrane recruitment): number of cells out of 100 positive cells scored; conditions: Fig 8c
Source text: First, we analyzed the preferred subcellular localization of DVL3 (as introduced in Fig. 2c)[10],[14]. […] Next, we investigated if DVL3 conformation correlates with the capacity of DVL3 to be recruited by FZD6, a key Wnt receptor, to the plasma membrane. For this purpose, we co-expressed FZD6 and analyzed membrane recruitment of DVL3 in FZD6-positive cells by immunofluorescence. Individual cells were categorized as: not recruited (Fig. 8b, no DVL3 in the membrane), partially recruited (clear membrane as well as cytoplasmic localization), and fully recruited (predominantly plasma membrane localization, Fig. 8c, left). […] In the last readout we analyzed the capacity of DVL3 to activate downstream Wnt/β-catenin pathway monitored by TopFlash reporter assay (Fig. 8d). […] On the other hand, under conditions that favor the open conformation both activation as well as inhibition of the Wnt/β-catenin pathway was evident.
For immunofluorescence, cells were seeded (40,000 per well) on 24-well plates with gelatin-coated coverslips and transfected, as indicated, with 0.1 μg of each corresponding plasmid (0.3 μg of mCherry-FZD6) for 6 h. For western blotting and Dual Luciferase TopFlash/Renilla Reporter Assay, cells were seeded (60,000 per well) directly on 24-well plates with 0.1 μg of each corresponding plasmid (if not indicated otherwise) for 6 h. For coimmunoprecipitation, cells were seeded (4.4 × 10^6) on 10-cm dishes and transfected with 1 μg of each corresponding plasmid. The next day after seeding, cells were transfected using polyethyleneimine (PEI) in a stoichiometry of 6 μl of PEI per 1 μg of DNA for 6 h and were harvested 24 h after transfection. The following plasmids used in HEK293 cells have been described previously: FLAG-DVL3 wt[47], CK1ϵ wt[48], mCherry-FZD6 (ref. [37]), and dominant-negative CK1ϵ P3 (ref. [33]). The ECFP-DVL3 wt plasmid was made by Gateway Technology (via LR recombination according to the manufacturer’s instructions; Thermo Fisher Scientific, #11791020) from the donor plasmid pDONR221 DVL3 (DNASU, #FLH178665.01x) and the destination plasmid pdECFP (LMBP, #4548). The HA-DVL3 wt plasmid was made by Gateway Technology from the donor plasmid pDONR221 DVL3 (DNASU, #FLH178665.01x) and the destination plasmid pcDNA3.1 N-term HA (gift from Erich Nigg).
Cells were seeded on gelatin-coated coverslips in 24-well plates and were transfected the next day. Cells were fixed 24 h later in fresh 4% paraformaldehyde, permeabilized with 0.5% Triton X-100, blocked with PBS/BSA/Triton/Azide buffer (PBTA) [3% (wt/vol) BSA, 0.25% Triton, 0.01% NaN3] for 1 h, and incubated overnight with primary antibodies (in dilution 1:500) in PBTA at 4 °C. The next day, the coverslips were washed in PBS and incubated with secondary antibodies conjugated to Alexa Fluor 488 (Invitrogen A11001) or/and Alexa Fluor 594 (Invitrogen A11058) (all in dilution 1:1000), washed with PBS [in case of samples containing FLAG-DVL3 WT and derived variants stained with DAPI (1:5000)], and all coverslips were mounted on microscopic slides. Cells were then visualized on an Olympus IX51 fluorescent microscope using ×40 air or ×100 oil objectives and/or an Olympus Fluoview 500 confocal laser scanning microscope IX71 using ×100 oil objective. One hundred positive cells per experiment (n = 3) were analyzed and scored according to their phenotype into two/three categories (punctae/even); or non-recruited/partially/fully recruited for FZD6-dependent recruitment of DVL3. The antibodies used were as follows: anti-FLAG M2 (Sigma-Aldrich, #F1804), anti-DVL3 (Santa Cruz, #sc-8027), anti-CK1ɛ (Santa Cruz, #sc-6471), anti-RFP (Chromotek, #5h9) and anti-GFP (Fitzgerald, #20R-GR-011).

Row | TopFlash relative to DVL3 wt (= 1) ([1]; replicate of grid row r4) | TopFlash relative to DVL3 wt (= 1) ([1]; replicate of grid row r5) | TopFlash relative to DVL3 wt (= 1) ([1]; replicate of grid row r6) | TopFlash relative to DVL3 wt (= 1) ([1]; replicate of grid row r7) | TopFlash relative to DVL3 wt (= 1) ([1]; replicate of grid row r8) | TopFlash relative to DVL3 wt (= 1) ([1]; replicate of grid row r9) | TopFlash relative to DVL3 wt (= 1) ([1]; replicate of grid row r10) | TopFlash relative to DVL3 wt (= 1) ([1]; replicate of grid row r11) | TopFlash relative to DVL3 wt (= 1) ([1]; replicate of grid row r12) | TopFlash relative to DVL3 wt (= 1) ([1]; replicate of grid row r13) | TopFlash relative to DVL3 wt (= 1) ([1]; replicate of grid row r14) | Molecule | Non-recruited (DVL3 membrane recruitment) ([2]; exp1) | Partially recruited (DVL3 membrane recruitment) ([2]; exp1) | Fully recruited (DVL3 membrane recruitment) ([2]; exp2) | Non-recruited (DVL3 membrane recruitment) ([2]; exp2) | Partially recruited (DVL3 membrane recruitment) ([2]; exp2) | Fully recruited (DVL3 membrane recruitment) ([2]; exp3) | Non-recruited (DVL3 membrane recruitment) ([2]; exp3) | Partially recruited (DVL3 membrane recruitment) ([2]; exp3) | Fully recruited (DVL3 membrane recruitment) ([2]; exp1)
1 | 0.2512 | 0.4095 | 0.2391 | 0.3021 | 0.4946 | 0.4126 | 0.6059 | 0.4276 | 0.421 | 0.43 | 0.3266 | DVL3 S268A/S311A (protein, UniProt Q92997 1-716, looked up, variant S268A S311A) Segment polarity protein …: MGETKIIYHLDGQETPYLVKLPLPAERVTLADFKGVLQRPSYKFFFKSMDDDFGVVKEEISDDNAKLPCFNGRVVSWLVSAEGSHPDPAPFCADNPSELPPPMERTGGIGDSRPPSFHPHAGGGSQENLDNDTETDSLVSAQRERPRRRDGPEHATRLNGTAKGERRREPGGYDSSSTLMSSELETTSFFDSDEDDSTSRFSSSTEQSSASRLMRRHKRRRRKQKVSRIERSSSFSSITDSTMSLNIITVTLNMEKYNFLGISIVGQANERGDGGIYIGSIMKGGAVAADGRIEPGDMLLQVNEINFENMANDDAVRVLREIVHKPGPITLTVAKCWDPSPRGCFTLPRSEPIRPIDPAAWVSHTAAMTGTFPAYGMSPSLSTITSTSSSITSSIPDTERLDDFHLSIHSDMAAIVKAMASPESGLEVRDRMWLKITIPNAFIGSDVVDWLYHNVEGFTDRREARKYASNLLKAGFIRHTVNKITFSEQCYYIFGDLCGNMANLSLHDHDGSSGASDQDTLAPLPHPGAAPWPMAFPYQYPPPPHPYNPHPGFPELGYSYGGGSASSQHSEGSRSSGSNRSGSDRRKEKDPKAGDSKSGGSGSESDHTTRSSLRGPRERAPSERSGPAASEHSHRSHHSLASSLRSHHTHPSYGPPGVPPLYGPPMLMMPPPPAAMGPPGAPPGRDLASVPPELTASRQSFRMAMGNPSEFFVDVM | 79 | 19 | 11 | 54 | 35 | 16 | 68 | 16 | 
2 | 0.8175 | 1.687 | 1.081 | 0.9973 | 0.619 | 0.5939 | 0.8497 | 1.052 | 1.009 | 1.108 | 1.265 | DVL3 S268E/S311E (protein, UniProt Q92997 1-716, looked up, variant S268E S311E) Segment polarity protein …: MGETKIIYHLDGQETPYLVKLPLPAERVTLADFKGVLQRPSYKFFFKSMDDDFGVVKEEISDDNAKLPCFNGRVVSWLVSAEGSHPDPAPFCADNPSELPPPMERTGGIGDSRPPSFHPHAGGGSQENLDNDTETDSLVSAQRERPRRRDGPEHATRLNGTAKGERRREPGGYDSSSTLMSSELETTSFFDSDEDDSTSRFSSSTEQSSASRLMRRHKRRRRKQKVSRIERSSSFSSITDSTMSLNIITVTLNMEKYNFLGISIVGQENERGDGGIYIGSIMKGGAVAADGRIEPGDMLLQVNEINFENMENDDAVRVLREIVHKPGPITLTVAKCWDPSPRGCFTLPRSEPIRPIDPAAWVSHTAAMTGTFPAYGMSPSLSTITSTSSSITSSIPDTERLDDFHLSIHSDMAAIVKAMASPESGLEVRDRMWLKITIPNAFIGSDVVDWLYHNVEGFTDRREARKYASNLLKAGFIRHTVNKITFSEQCYYIFGDLCGNMANLSLHDHDGSSGASDQDTLAPLPHPGAAPWPMAFPYQYPPPPHPYNPHPGFPELGYSYGGGSASSQHSEGSRSSGSNRSGSDRRKEKDPKAGDSKSGGSGSESDHTTRSSLRGPRERAPSERSGPAASEHSHRSHHSLASSLRSHHTHPSYGPPGVPPLYGPPMLMMPPPPAAMGPPGAPPGRDLASVPPELTASRQSFRMAMGNPSEFFVDVM | 52 | 37 | 20 | 49 | 31 | 10 | 60 | 30 | 11
